What was measured:
Assay in all cases: cell-based or functional assay
[1] = target: HIV-1 Env of isolate MGRM-D-004 (subtype D) (HIV-1)
[2] = target: HIV-1 Env of isolate MGRM-D-005 (subtype D) (HIV-1)
[3] = target: HIV-1 Env of isolate MGRM-D-001 (subtype D) (HIV-1)
[4] = target: HIV-1 Env of isolate MGRM-F1-021 (subtype F) (HIV-1)
[5] = target: HIV-1 Env of pseudovirus isolate MGRM-G-001 (subtype G) (HIV-1)
[6] = target: HIV-1 Env of isolate MGRM-D-019 (subtype D) (HIV-1)
[7] = target: HIV-1 Env of isolate MGRM-F1-015 (subtype F) (HIV-1)
[8] = target: HIV-1 Env of isolate 92UG024 (subtype D) (HIV-1)
[9] = target: HIV-1 Env of isolate MGRM-D-003 (subtype D) (HIV-1)
[10] = target: HIV-1 Env of pseudovirus isolate MGRM-G-013 (subtype G) (HIV-1)
[11] = target: HIV-1 Env of isolate 98CN009 (subtype CRF07_BC) (HIV-1)
[12] = target: HIV-1 Env of isolate MGRM-F1-017 (subtype F) (HIV-1)
[13] = target: HIV-1 Env of isolate MGRM-F1-020 (subtype F) (HIV-1)
[14] = target: HIV-1 Env of isolate 92UG046 (subtype D) (HIV-1)
[15] = target: HIV-1 Env of isolate MGRM-F1-016 (subtype F) (HIV-1)
[16] = target: HIV-1 Env of isolate MGRM-D-018 (subtype D) (HIV-1)
[17] = target: HIV-1 Env of isolate MGRM-D-002 (subtype D) (HIV-1)
[18] = target: HIV-1 Env of isolate MGRM-D-008 (subtype D) (HIV-1)
[19] = target: HIV-1 Env of pseudovirus isolate MGRM-G-027 (subtype G) (HIV-1)
[20] = target: HIV-1 Env of isolate 98CN006 (subtype CRF08_BC) (HIV-1)
[21] = target: HIV-1 Env of isolate MGRM-F1-014 (subtype F) (HIV-1)
[22] = target: HIV-1 Env of isolate 92UG001 (subtype D) (HIV-1)
[23] = target: HIV-1 Env of isolate MGRM-D-028 (subtype D) (HIV-1)
[24] = target: HIV-1 Env of isolate MGRM-D-016 (subtype D) (HIV-1)
[25] = target: HIV-1 Env of isolate MGRM-F1-004 (subtype F) (HIV-1)
[26] = target: HIV-1 Env of pseudovirus isolate MGRM-G-017 (subtype G) (HIV-1)
[27] = target: HIV-1 Env of isolate MGRM-D-013 (subtype D) (HIV-1)
[28] = target: HIV-1 Env of pseudovirus isolate MGRM-G-015 (subtype G) (HIV-1)
[29] = target: HIV-1 Env of pseudovirus isolate MGRM-G-024 (subtype G) (HIV-1)
[30] = target: HIV-1 Env of isolate MGRM-F1-022 (subtype F) (HIV-1)
[31] = target: HIV-1 Env of isolate MGRM-D-012 (subtype D) (HIV-1)
[32] = target: HIV-1 Env of pseudovirus isolate MGRM-G-011 (subtype G) (HIV-1)
[33] = target: HIV-1 Env of isolate MGRM-D-029 (subtype D) (HIV-1)
[34] = target: HIV-1 Env of isolate MGRM-F1-008 (subtype F) (HIV-1)
[35] = target: HIV-1 Env of isolate MGRM-F1-010 (subtype F) (HIV-1)
[36] = target: HIV-1 Env of pseudovirus isolate MGRM-G-028 (subtype G) (HIV-1)
[37] = target: HIV-1 Env of isolate MGRM-F1-018 (subtype F) (HIV-1)
[38] = target: HIV-1 Env of isolate MGRM-D-024 (subtype D) (HIV-1)
[39] = target: HIV-1 Env of pseudovirus isolate MGRM-G-016 (subtype G) (HIV-1)
[40] = target: HIV-1 Env of isolate MGRM-D-020 (subtype D) (HIV-1)
[41] = target: HIV-1 Env of isolate MGRM-D-011 (subtype D) (HIV-1)
[42] = target: HIV-1 Env of pseudovirus isolate MGRM-G-014 (subtype G) (HIV-1)
[43] = target: HIV-1 Env of isolate MGRM-D-026 (subtype D) (HIV-1)
[44] = target: HIV-1 Env of isolate MGRM-F1-006 (subtype F) (HIV-1)
[45] = target: HIV-1 Env of pseudovirus isolate MGRM-G-009 (subtype G) (HIV-1)
[46] = target: HIV-1 Env of pseudovirus isolate MGRM-G-006 (subtype G) (HIV-1)
[47] = target: HIV-1 Env of pseudovirus isolate MGRM-G-004 (subtype G) (HIV-1)
[48] = target: HIV-1 Env of pseudovirus isolate MGRM-G-019 (subtype G) (HIV-1)
[49] = target: HIV-1 Env of isolate MGRM-F1-012 (subtype F) (HIV-1)
[50] = target: HIV-1 Env of pseudovirus isolate MGRM-G-025 (subtype G) (HIV-1)
[51] = target: HIV-1 Env of isolate 92UG005 (subtype D) (HIV-1)
[52] = target: HIV-1 Env of isolate MGRM-D-021 (subtype D) (HIV-1)
[53] = target: HIV-1 Env of isolate MGRM-D-014 (subtype D) (HIV-1)
[54] = target: HIV-1 Env of isolate MGRM-F1-013 (subtype F) (HIV-1)
[55] = target: HIV-1 Env of isolate MGRM-F1-023 (subtype F) (HIV-1)
[56] = target: envelope of aMLV pseudovirus (negative control)
[57] = target: HIV-1 Env of isolate MGRM-D-022 (subtype D) (HIV-1)
[58] = target: HIV-1 Env of isolate 92UG114 (subtype D) (HIV-1)

PGT-122 (antibody)
IC50 (neutralization) [1]: > 50 µg/mL | IC50 (neutralization) [2]: > 50 µg/mL | IC50 (neutralization) [3]: 1.13 µg/mL | IC50 (neutralization) [4]: 2.3 µg/mL | IC50 [5]: 0.005 µg/mL | IC50 (neutralization) [6]: > 50 µg/mL | IC50 (neutralization) [7]: 31.4 µg/mL | IC50 (neutralization) [8]: > 50 µg/mL | IC50 (neutralization) [9]: > 50 µg/mL | IC50 [10]: 3.45 µg/mL | IC50 (neutralization) [11]: 0.013 µg/mL | IC50 (neutralization) [12]: > 50 µg/mL | IC50 (neutralization) [13]: 0.321 µg/mL | IC50 (neutralization) [14]: > 50 µg/mL | IC50 (neutralization) [15]: 4.81 µg/mL | IC50 (neutralization) [16]: 0.007 µg/mL | IC50 (neutralization) [17]: 0.005 µg/mL | IC50 (neutralization) [18]: > 50 µg/mL | IC50 [19]: 0.606 µg/mL | IC50 (neutralization) [20]: 0.021 µg/mL | IC50 (neutralization) [21]: 0.195 µg/mL | IC50 (neutralization) [22]: > 50 µg/mL | IC50 (neutralization) [23]: 3.34 µg/mL | IC50 (neutralization) [24]: > 50 µg/mL | IC50 (neutralization) [25]: 1.29 µg/mL | IC50 [26]: 0.032 µg/mL | IC50 (neutralization) [27]: > 50 µg/mL | IC50 [28]: > 50 µg/mL | IC50 [29]: 0.033 µg/mL | IC50 (neutralization) [30]: 0.277 µg/mL | IC50 (neutralization) [31]: > 50 µg/mL | IC50 [32]: 31.3 µg/mL | IC50 (neutralization) [33]: > 50 µg/mL | IC50 (neutralization) [34]: > 50 µg/mL | IC50 (neutralization) [35]: 0.024 µg/mL | IC50 [36]: 0.01 µg/mL | IC50 (neutralization) [37]: 0.563 µg/mL | IC50 (neutralization) [38]: 0.185 µg/mL | IC50 [39]: > 50 µg/mL | IC50 (neutralization) [40]: 0.007 µg/mL | IC50 (neutralization) [41]: 0.019 µg/mL | IC50 [42]: 0.008 µg/mL | IC50 (neutralization) [43]: > 50 µg/mL | IC50 (neutralization) [44]: 3.27 µg/mL | IC50 [45]: 0.514 µg/mL | IC50 [46]: > 50 µg/mL | IC50 [47]: 2.15 µg/mL | IC50 [48]: 0.016 µg/mL | IC50 (neutralization) [49]: > 50 µg/mL | IC50 [50]: 0.079 µg/mL | IC50 (neutralization) [51]: > 50 µg/mL | IC50 (neutralization) [52]: 11.7 µg/mL | IC50 (neutralization) [53]: 0.012 µg/mL | IC50 (neutralization) [54]: 0.152 µg/mL | IC50 (neutralization) [55]: 0.154 µg/mL | IC50 [56]: > 50 µg/mL | IC50 (neutralization) [57]: > 50 µg/mL | IC50 (neutralization) [58]: 0.011 µg/mL

PGT-121 (antibody)
IC50 (neutralization) [1]: > 50 µg/mL | IC50 (neutralization) [2]: > 50 µg/mL | IC50 (neutralization) [3]: 0.615 µg/mL | IC50 (neutralization) [4]: 0.099 µg/mL | IC50 [5]: 0.004 µg/mL | IC50 (neutralization) [6]: > 50 µg/mL | IC50 (neutralization) [7]: 28.4 µg/mL | IC50 (neutralization) [8]: > 50 µg/mL | IC50 (neutralization) [9]: 10.7 µg/mL | IC50 [10]: 3.99 µg/mL | IC50 (neutralization) [11]: 0.009 µg/mL | IC50 (neutralization) [12]: 16.9 µg/mL | IC50 (neutralization) [13]: 0.167 µg/mL | IC50 (neutralization) [14]: > 50 µg/mL | IC50 (neutralization) [15]: 0.931 µg/mL | IC50 (neutralization) [16]: 0.005 µg/mL | IC50 (neutralization) [17]: 0.006 µg/mL | IC50 (neutralization) [18]: > 50 µg/mL | IC50 [19]: 0.124 µg/mL | IC50 (neutralization) [20]: 0.01 µg/mL | IC50 (neutralization) [21]: 0.082 µg/mL | IC50 (neutralization) [22]: > 50 µg/mL | IC50 (neutralization) [23]: 0.009 µg/mL | IC50 (neutralization) [24]: > 50 µg/mL | IC50 (neutralization) [25]: 1.67 µg/mL | IC50 [26]: 0.004 µg/mL | IC50 (neutralization) [27]: > 50 µg/mL | IC50 [28]: > 50 µg/mL | IC50 [29]: 0.014 µg/mL | IC50 (neutralization) [30]: 0.104 µg/mL | IC50 (neutralization) [31]: > 50 µg/mL | IC50 [32]: 3.17 µg/mL | IC50 (neutralization) [33]: > 50 µg/mL | IC50 (neutralization) [34]: > 50 µg/mL | IC50 (neutralization) [35]: 0.016 µg/mL | IC50 [36]: 0.014 µg/mL | IC50 (neutralization) [37]: 0.04 µg/mL | IC50 (neutralization) [38]: 0.038 µg/mL | IC50 [39]: > 50 µg/mL | IC50 (neutralization) [40]: 0.01 µg/mL | IC50 (neutralization) [41]: 0.018 µg/mL | IC50 [42]: 0.009 µg/mL | IC50 (neutralization) [43]: > 50 µg/mL | IC50 (neutralization) [44]: 5.33 µg/mL | IC50 [45]: 0.02 µg/mL | IC50 [46]: > 50 µg/mL | IC50 [47]: 0.115 µg/mL | IC50 [48]: 0.011 µg/mL | IC50 (neutralization) [49]: 1.91 µg/mL | IC50 [50]: 0.063 µg/mL | IC50 (neutralization) [51]: 18.3 µg/mL | IC50 (neutralization) [52]: 5.33 µg/mL | IC50 (neutralization) [53]: 0.009 µg/mL | IC50 (neutralization) [54]: 0.083 µg/mL | IC50 (neutralization) [55]: 0.097 µg/mL | IC50 [56]: > 50 µg/mL | IC50 (neutralization) [57]: > 50 µg/mL | IC50 (neutralization) [58]: 0.004 µg/mL

— US20160264649A1
